# According to US20150064134A1:
# Key:
# Experiment in all cases: cell-based or functional assay
# CDK3/cyclinE(h) (human) = CDK3/cyclinE(h) (human) (UniProt Q00526)
# Fer(h) (human) = Fer(h) (human) (UniProt P16591)
# Haspin(h) (human) = target: T1, Haspin(h) (human) (UniProt Q8TF76)
# T1 sequence (looked up): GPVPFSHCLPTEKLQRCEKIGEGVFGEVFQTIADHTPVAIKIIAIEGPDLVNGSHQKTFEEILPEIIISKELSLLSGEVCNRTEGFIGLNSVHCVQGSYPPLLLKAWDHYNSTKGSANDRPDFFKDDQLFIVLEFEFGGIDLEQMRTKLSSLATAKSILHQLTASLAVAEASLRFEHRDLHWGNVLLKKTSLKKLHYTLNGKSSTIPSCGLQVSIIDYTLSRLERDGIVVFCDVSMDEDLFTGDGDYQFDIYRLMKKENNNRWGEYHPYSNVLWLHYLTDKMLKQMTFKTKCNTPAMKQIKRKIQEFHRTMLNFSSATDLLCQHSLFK
# IKKβ(h) (human) = target: T2, IKKβ(h) (human) (UniProt O14920)
# T2 sequence (looked up): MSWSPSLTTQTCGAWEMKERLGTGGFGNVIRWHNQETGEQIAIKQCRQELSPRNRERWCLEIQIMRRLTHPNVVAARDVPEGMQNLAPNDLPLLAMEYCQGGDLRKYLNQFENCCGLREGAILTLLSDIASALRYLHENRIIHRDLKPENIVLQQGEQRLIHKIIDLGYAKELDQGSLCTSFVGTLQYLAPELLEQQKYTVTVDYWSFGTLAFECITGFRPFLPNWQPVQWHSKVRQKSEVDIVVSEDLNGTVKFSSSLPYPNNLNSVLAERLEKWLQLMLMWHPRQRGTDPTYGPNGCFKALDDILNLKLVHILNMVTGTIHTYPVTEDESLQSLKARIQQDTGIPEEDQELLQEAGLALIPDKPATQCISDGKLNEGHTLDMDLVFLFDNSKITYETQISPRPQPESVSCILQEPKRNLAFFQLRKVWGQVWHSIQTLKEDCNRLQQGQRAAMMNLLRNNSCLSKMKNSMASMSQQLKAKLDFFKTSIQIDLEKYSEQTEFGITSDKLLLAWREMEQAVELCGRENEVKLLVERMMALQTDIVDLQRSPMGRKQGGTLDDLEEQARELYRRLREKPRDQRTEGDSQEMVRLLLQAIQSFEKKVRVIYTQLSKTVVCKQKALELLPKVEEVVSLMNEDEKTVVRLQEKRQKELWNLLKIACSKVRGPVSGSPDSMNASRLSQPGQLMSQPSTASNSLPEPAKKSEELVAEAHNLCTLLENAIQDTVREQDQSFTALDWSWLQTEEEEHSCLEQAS
# Itk(h) (human) = target: T3, Itk(h) (human) (UniProt Q08881)
# T3 sequence (looked up): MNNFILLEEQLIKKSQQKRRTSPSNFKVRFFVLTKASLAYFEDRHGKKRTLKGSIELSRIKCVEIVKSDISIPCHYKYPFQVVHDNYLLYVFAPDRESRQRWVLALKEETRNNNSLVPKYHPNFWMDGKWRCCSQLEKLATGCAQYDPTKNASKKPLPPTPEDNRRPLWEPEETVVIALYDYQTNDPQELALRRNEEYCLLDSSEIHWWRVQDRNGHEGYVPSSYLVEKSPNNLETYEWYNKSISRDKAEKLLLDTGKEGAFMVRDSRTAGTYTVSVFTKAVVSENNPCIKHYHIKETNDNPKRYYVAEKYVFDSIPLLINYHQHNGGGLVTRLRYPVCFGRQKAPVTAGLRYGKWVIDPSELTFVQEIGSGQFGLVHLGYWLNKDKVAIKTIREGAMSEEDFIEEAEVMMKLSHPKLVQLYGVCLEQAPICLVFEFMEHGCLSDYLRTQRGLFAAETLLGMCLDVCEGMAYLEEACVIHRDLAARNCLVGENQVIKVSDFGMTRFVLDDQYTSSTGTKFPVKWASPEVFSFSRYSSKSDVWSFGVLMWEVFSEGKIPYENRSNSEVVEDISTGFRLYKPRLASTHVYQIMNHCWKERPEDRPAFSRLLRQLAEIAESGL
# Met(M1268T)(h) (human) = Met(M1268T)(h) (human) (UniProt P08581)
# PKCγ(h) (human) = PKCγ(h) (human) (UniProt P05129)
# PKD2(h) (human) = target: T4, PKD2(h) (human) (UniProt Q9BZL6)
# T4 sequence (looked up): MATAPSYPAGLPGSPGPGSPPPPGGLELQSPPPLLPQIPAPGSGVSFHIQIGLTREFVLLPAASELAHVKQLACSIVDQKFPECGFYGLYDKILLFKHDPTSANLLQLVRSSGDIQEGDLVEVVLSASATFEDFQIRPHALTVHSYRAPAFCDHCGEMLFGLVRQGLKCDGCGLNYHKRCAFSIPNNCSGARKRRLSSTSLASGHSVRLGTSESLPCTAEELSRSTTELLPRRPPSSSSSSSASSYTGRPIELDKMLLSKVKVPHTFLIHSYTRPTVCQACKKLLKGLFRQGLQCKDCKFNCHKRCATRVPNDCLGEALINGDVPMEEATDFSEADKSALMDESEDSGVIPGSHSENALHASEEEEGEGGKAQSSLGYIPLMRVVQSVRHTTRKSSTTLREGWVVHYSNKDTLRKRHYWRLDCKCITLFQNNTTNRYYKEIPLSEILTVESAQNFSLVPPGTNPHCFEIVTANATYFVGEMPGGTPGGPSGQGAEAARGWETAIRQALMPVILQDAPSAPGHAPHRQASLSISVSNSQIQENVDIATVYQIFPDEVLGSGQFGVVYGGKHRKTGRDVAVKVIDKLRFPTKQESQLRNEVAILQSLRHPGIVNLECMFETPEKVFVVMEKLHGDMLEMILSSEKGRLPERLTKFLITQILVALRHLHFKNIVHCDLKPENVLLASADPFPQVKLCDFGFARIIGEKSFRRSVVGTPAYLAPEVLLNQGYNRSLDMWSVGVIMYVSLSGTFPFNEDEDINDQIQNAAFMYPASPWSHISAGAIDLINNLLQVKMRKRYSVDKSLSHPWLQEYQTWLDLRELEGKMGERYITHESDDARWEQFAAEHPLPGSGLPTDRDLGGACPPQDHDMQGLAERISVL
# VRK2(h) (human) = VRK2(h) (human) (UniProt Q86Y07)
# Sequence of VRK2(h) (human) (Q86Y07 whole entry): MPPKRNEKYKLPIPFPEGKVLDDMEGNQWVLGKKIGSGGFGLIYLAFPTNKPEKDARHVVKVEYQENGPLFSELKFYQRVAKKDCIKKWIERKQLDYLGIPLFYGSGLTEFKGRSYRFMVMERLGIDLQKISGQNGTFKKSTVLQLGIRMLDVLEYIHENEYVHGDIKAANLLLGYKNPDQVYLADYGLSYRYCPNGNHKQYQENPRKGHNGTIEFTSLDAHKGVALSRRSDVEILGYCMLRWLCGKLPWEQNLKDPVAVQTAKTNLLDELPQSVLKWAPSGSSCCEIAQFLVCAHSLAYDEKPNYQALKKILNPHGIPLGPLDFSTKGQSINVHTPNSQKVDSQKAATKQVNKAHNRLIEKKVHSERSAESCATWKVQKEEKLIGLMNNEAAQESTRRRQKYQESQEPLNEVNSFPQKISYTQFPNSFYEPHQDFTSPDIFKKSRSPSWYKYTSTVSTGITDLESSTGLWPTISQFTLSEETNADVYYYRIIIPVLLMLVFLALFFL
# WNK2(h) (human) = WNK2(h) (human) (UniProt Q9Y3S1)
# cKit(D816V)(h) (human) = cKit(D816V)(h) (human) (UniProt P10721)
# Sequence of cKit(D816V)(h) (human) (P10721 544-976 D816V): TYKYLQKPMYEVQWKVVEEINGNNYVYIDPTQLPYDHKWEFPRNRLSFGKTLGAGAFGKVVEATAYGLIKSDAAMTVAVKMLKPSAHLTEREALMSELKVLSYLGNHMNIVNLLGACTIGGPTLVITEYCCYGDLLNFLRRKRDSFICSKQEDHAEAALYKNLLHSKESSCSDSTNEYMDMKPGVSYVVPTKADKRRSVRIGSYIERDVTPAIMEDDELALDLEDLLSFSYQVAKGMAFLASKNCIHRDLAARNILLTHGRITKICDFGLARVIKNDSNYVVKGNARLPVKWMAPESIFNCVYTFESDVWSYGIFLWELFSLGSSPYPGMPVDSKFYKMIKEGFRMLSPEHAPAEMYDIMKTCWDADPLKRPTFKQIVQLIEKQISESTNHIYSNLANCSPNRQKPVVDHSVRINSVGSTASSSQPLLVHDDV
# cSRC(h) (human) = cSRC(h) (human) (UniProt P12931)
% activity at 100 µM (CDK3/cyclinE(h) (human)) [%],% activity at 100 µM (Fer(h) (human)) [%],% activity at 100 µM (Haspin(h) (human)) [%],% activity at 100 µM (IKKβ(h) (human)) [%],% activity at 100 µM (Itk(h) (human)) [%],% activity at 100 µM (Met(M1268T)(h) (human)) [%],% activity at 100 µM (PKCγ(h) (human)) [%],% activity at 100 µM (PKD2(h) (human)) [%],% activity at 100 µM (VRK2(h) (human)) [%],% activity at 100 µM (WNK2(h) (human)) [%],% activity at 100 µM (cKit(D816V)(h) (human)) [%],% activity at 100 µM (cSRC(h) (human)) [%],Substance
94,130,48,84,77,255,89,33,161,64,60,26,MMI-0300 (peptide)
92,108,36,84,63,265,79,25,185,54,35,14,MMI-0400 (peptide)
8,196,25,71,7,239,6,10,169,8,30,30,MMI-0500 (peptide)
